# Source: US20140087995A1 (published 2014)
# Numbered stars: 1 amine (or outer) side, 2 acyl side, 3 side chain; on linkers, the order of the positions; unused ones are H or OH. Bridge positions count the residues as written; N and C are the ends. Side chains are listed from the residue outwards. Ends that are not written are not given here. * marks the point of attachment. C20 diacid = O=C(O)CCCCCCCCCCCCCCCCCCC(=O)*; γGlu = O=C(O)[C@H](CCC(=O)[*:2])N[*:1]
# T1: human calcitonin receptor (human, UniProt P30988 25-474)
# T1 construct: whole, on cells; Membranes of stably transfected cells; also called hCTR; hCT
# T1 sequence (looked up): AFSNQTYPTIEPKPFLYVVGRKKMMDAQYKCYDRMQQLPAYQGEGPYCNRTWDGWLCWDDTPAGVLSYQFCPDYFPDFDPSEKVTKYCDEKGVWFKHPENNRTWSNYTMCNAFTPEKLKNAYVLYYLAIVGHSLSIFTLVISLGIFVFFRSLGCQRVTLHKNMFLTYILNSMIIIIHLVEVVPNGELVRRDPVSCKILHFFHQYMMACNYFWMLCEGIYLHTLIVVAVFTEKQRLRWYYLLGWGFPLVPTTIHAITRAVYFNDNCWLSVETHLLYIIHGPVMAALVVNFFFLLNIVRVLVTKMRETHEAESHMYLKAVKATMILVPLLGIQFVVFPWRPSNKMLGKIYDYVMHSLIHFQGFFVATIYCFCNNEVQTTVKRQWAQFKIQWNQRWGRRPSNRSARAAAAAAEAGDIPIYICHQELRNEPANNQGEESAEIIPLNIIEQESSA
# T2: rat calcitonin receptor (rat, UniProt P32214 25-516)
# T2 construct: whole, on cells; Membranes of transiently transfected BHK tk'ts 13 cells; also called rCTR; rat calcitonin (a) receptor
# T2 sequence (looked up): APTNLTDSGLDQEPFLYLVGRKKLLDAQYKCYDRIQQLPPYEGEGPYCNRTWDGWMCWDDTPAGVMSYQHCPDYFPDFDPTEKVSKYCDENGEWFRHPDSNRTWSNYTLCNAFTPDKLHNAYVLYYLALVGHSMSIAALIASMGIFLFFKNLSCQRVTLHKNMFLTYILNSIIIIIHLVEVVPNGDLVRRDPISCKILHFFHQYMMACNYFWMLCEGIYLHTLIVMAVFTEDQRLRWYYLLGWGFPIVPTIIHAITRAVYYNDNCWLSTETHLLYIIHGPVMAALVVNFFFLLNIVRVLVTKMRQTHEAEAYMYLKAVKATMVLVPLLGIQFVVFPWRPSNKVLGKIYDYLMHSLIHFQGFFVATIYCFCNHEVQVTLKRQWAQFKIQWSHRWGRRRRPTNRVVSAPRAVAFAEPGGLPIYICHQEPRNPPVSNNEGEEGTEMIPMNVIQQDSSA
# T3: rat amylin receptor (rat calcitonin receptor + rat RAMP 3) (rat, UniProt P32214 25-516; Q9JJ73 23-147)
# T3 construct: whole, on cells; Membranes of transiently transfected BHK tk'ts 13 cells; also called rAmylin-R; rat amylin 3(a) receptor
# T3 sequence (looked up) 1: T2 sequence (looked up)
# T3 sequence (looked up) 2: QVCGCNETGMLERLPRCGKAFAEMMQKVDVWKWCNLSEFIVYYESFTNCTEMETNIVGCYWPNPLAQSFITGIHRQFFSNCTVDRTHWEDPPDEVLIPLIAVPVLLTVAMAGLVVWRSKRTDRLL
# B1: N^ε1-[(4S)-4-carboxy-4-[[(4S)-4-carboxy-4-(19-carboxynonadecanoylamino)butanoyl]amino]butanoyl]-[Glu14,Arg17,Pro21,Pro27,Arg34,Glu35]-h-amylin (peptide)
# peptide: K([γGlu-γGlu-C20 diacid])CNTATCATQRLAEFLRHSSPNFGAIPSSTNVGRETY-NH2
# modifications: disulfide 2-7; N-terminus assumed
# SMILES: CC[C@H](C)[C@H](NC(=O)[C@H](C)NC(=O)CNC(=O)[C@H](Cc1ccccc1)NC(=O)[C@H](CC(N)=O)NC(=O)[C@@H]1CCCN1C(=O)[C@H](CO)NC(=O)[C@H](CO)NC(=O)[C@H](Cc1c[nH]cn1)NC(=O)[C@H](CCCNC(=N)N)NC(=O)[C@H](CC(C)C)NC(=O)[C@H](Cc1ccccc1)NC(=O)[C@H](CCC(=O)O)NC(=O)[C@H](C)NC(=O)[C@H](CC(C)C)NC(=O)[C@H](CCCNC(=N)N)NC(=O)[C@H](CCC(N)=O)NC(=O)[C@@H](NC(=O)[C@H](C)NC(=O)[C@@H]1CSSC[C@H](NC(=O)[C@@H](N)CCCCNC(=O)CC[C@H](NC(=O)CC[C@H](NC(=O)CCCCCCCCCCCCCCCCCCC(=O)O)C(=O)O)C(=O)O)C(=O)N[C@@H](CC(N)=O)C(=O)N[C@@H]([C@@H](C)O)C(=O)N[C@@H](C)C(=O)N[C@@H]([C@@H](C)O)C(=O)N1)[C@@H](C)O)C(=O)N1CCC[C@H]1C(=O)N[C@@H](CO)C(=O)N[C@@H](CO)C(=O)N[C@H](C(=O)N[C@@H](CC(N)=O)C(=O)N[C@H](C(=O)NCC(=O)N[C@@H](CCCNC(=N)N)C(=O)N[C@@H](CCC(=O)O)C(=O)N[C@H](C(=O)N[C@@H](Cc1ccc(O)cc1)C(N)=O)[C@@H](C)O)C(C)C)[C@@H](C)O
# notes: Synthetic acylated analogue of human amylin
# B2: N^ε1-[(4S)-4-carboxy-4-[[(4S)-4-carboxy-4-(19-carboxynonadecanoylamino)butanoyl]amino]butanoyl]-[Glu14,Arg17,Pro21,Pro27,Pro34,Arg35]-h-amylin (peptide)
# peptide: K([γGlu-γGlu-C20 diacid])CNTATCATQRLAEFLRHSSPNFGAIPSSTNVGPRTY-NH2
# modifications: disulfide 2-7; N-terminus assumed
# SMILES: CC[C@H](C)[C@H](NC(=O)[C@H](C)NC(=O)CNC(=O)[C@H](Cc1ccccc1)NC(=O)[C@H](CC(N)=O)NC(=O)[C@@H]1CCCN1C(=O)[C@H](CO)NC(=O)[C@H](CO)NC(=O)[C@H](Cc1c[nH]cn1)NC(=O)[C@H](CCCNC(=N)N)NC(=O)[C@H](CC(C)C)NC(=O)[C@H](Cc1ccccc1)NC(=O)[C@H](CCC(=O)O)NC(=O)[C@H](C)NC(=O)[C@H](CC(C)C)NC(=O)[C@H](CCCNC(=N)N)NC(=O)[C@H](CCC(N)=O)NC(=O)[C@@H](NC(=O)[C@H](C)NC(=O)[C@@H]1CSSC[C@H](NC(=O)[C@@H](N)CCCCNC(=O)CC[C@H](NC(=O)CC[C@H](NC(=O)CCCCCCCCCCCCCCCCCCC(=O)O)C(=O)O)C(=O)O)C(=O)N[C@@H](CC(N)=O)C(=O)N[C@@H]([C@@H](C)O)C(=O)N[C@@H](C)C(=O)N[C@@H]([C@@H](C)O)C(=O)N1)[C@@H](C)O)C(=O)N1CCC[C@H]1C(=O)N[C@@H](CO)C(=O)N[C@@H](CO)C(=O)N[C@H](C(=O)N[C@@H](CC(N)=O)C(=O)N[C@H](C(=O)NCC(=O)N1CCC[C@H]1C(=O)N[C@@H](CCCNC(=N)N)C(=O)N[C@H](C(=O)N[C@@H](Cc1ccc(O)cc1)C(N)=O)[C@@H](C)O)C(C)C)[C@@H](C)O
# notes: Synthetic acylated analogue of human amylin; also called compound 110
# B3: N^ε1-[(4S)-4-carboxy-4-[[(4S)-4-carboxy-4-(19-carboxynonadecanoylamino)butanoyl]amino]butanoyl]-[Glu14,Arg17,Pro21,Pro27,Pro34,His35]-h-amylin (peptide)
# peptide: K([γGlu-γGlu-C20 diacid])CNTATCATQRLAEFLRHSSPNFGAIPSSTNVGPHTY-NH2
# modifications: disulfide 2-7 (inferred)
# notes: as for B1
# B4: N^ε1-[(4S)-4-carboxy-4-[[(4S)-4-carboxy-4-(19-carboxynonadecanoylamino)butanoyl]amino]butanoyl]-[Glu14,Arg17,Pro21,Pro27,His34,Glu35]-h-amylin (peptide)
# peptide: K([γGlu-γGlu-C20 diacid])CNTATCATQRLAEFLRHSSPNFGAIPSSTNVGHETY-NH2
# modifications: disulfide 2-7; N-terminus assumed
# SMILES: CC[C@H](C)[C@H](NC(=O)[C@H](C)NC(=O)CNC(=O)[C@H](Cc1ccccc1)NC(=O)[C@H](CC(N)=O)NC(=O)[C@@H]1CCCN1C(=O)[C@H](CO)NC(=O)[C@H](CO)NC(=O)[C@H](Cc1c[nH]cn1)NC(=O)[C@H](CCCNC(=N)N)NC(=O)[C@H](CC(C)C)NC(=O)[C@H](Cc1ccccc1)NC(=O)[C@H](CCC(=O)O)NC(=O)[C@H](C)NC(=O)[C@H](CC(C)C)NC(=O)[C@H](CCCNC(=N)N)NC(=O)[C@H](CCC(N)=O)NC(=O)[C@@H](NC(=O)[C@H](C)NC(=O)[C@@H]1CSSC[C@H](NC(=O)[C@@H](N)CCCCNC(=O)CC[C@H](NC(=O)CC[C@H](NC(=O)CCCCCCCCCCCCCCCCCCC(=O)O)C(=O)O)C(=O)O)C(=O)N[C@@H](CC(N)=O)C(=O)N[C@@H]([C@@H](C)O)C(=O)N[C@@H](C)C(=O)N[C@@H]([C@@H](C)O)C(=O)N1)[C@@H](C)O)C(=O)N1CCC[C@H]1C(=O)N[C@@H](CO)C(=O)N[C@@H](CO)C(=O)N[C@H](C(=O)N[C@@H](CC(N)=O)C(=O)N[C@H](C(=O)NCC(=O)N[C@@H](Cc1c[nH]cn1)C(=O)N[C@@H](CCC(=O)O)C(=O)N[C@H](C(=O)N[C@@H](Cc1ccc(O)cc1)C(N)=O)[C@@H](C)O)C(C)C)[C@@H](C)O
# notes: as for B1
# B5: N^ε1-[(4S)-4-carboxy-4-[[(4S)-4-carboxy-4-(19-carboxynonadecanoylamino)butanoyl]amino]butanoyl]-[Glu14,Arg17,Pro21,Pro27,Pro34,Glu35,Pro37]-h-amylin (peptide)
# peptide: K([γGlu-γGlu-C20 diacid])CNTATCATQRLAEFLRHSSPNFGAIPSSTNVGPETP-NH2
# modifications: disulfide 2-7; N-terminus assumed
# SMILES: CC[C@H](C)[C@H](NC(=O)[C@H](C)NC(=O)CNC(=O)[C@H](Cc1ccccc1)NC(=O)[C@H](CC(N)=O)NC(=O)[C@@H]1CCCN1C(=O)[C@H](CO)NC(=O)[C@H](CO)NC(=O)[C@H](Cc1c[nH]cn1)NC(=O)[C@H](CCCNC(=N)N)NC(=O)[C@H](CC(C)C)NC(=O)[C@H](Cc1ccccc1)NC(=O)[C@H](CCC(=O)O)NC(=O)[C@H](C)NC(=O)[C@H](CC(C)C)NC(=O)[C@H](CCCNC(=N)N)NC(=O)[C@H](CCC(N)=O)NC(=O)[C@@H](NC(=O)[C@H](C)NC(=O)[C@@H]1CSSC[C@H](NC(=O)[C@@H](N)CCCCNC(=O)CC[C@H](NC(=O)CC[C@H](NC(=O)CCCCCCCCCCCCCCCCCCC(=O)O)C(=O)O)C(=O)O)C(=O)N[C@@H](CC(N)=O)C(=O)N[C@@H]([C@@H](C)O)C(=O)N[C@@H](C)C(=O)N[C@@H]([C@@H](C)O)C(=O)N1)[C@@H](C)O)C(=O)N1CCC[C@H]1C(=O)N[C@@H](CO)C(=O)N[C@@H](CO)C(=O)N[C@H](C(=O)N[C@@H](CC(N)=O)C(=O)N[C@H](C(=O)NCC(=O)N1CCC[C@H]1C(=O)N[C@@H](CCC(=O)O)C(=O)N[C@H](C(=O)N1CCC[C@H]1C(N)=O)[C@@H](C)O)C(C)C)[C@@H](C)O
# notes: as for B1
# Target: T1, human calcitonin receptor
# Test: ratio of IC50 on human calcitonin receptor to IC50 on human amylin receptor (reference m42), SPA competition
# In short: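 Membranes (35 ng/μL final) + SPA beads, 50 mM Hepes pH 7.4 buffer with 1 mM CaCl2, 5 mM MgCl₂, 0.1% OA, 0.02% Tween20; 120 min, 25° C, shaking; centrifuged, counted; IC₅₀ by one-site binding competition.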
row,Ratio hCT/hAmylin binding,Binder
1,14.7,B1
2,53.6,B2
3,27.3,B3
4,29.1,B4
5,0.4,B5

# Target: T2, rat calcitonin receptor
# Test: SPA competition with 125I-calcitonin on membranes of BHK tk'ts 13 cells with rat calcitonin receptor (Assay VIII)
row,IC50 [nM],Binder
1,452,B1
2,38.3,B2
3,21,B3
4,498,B4
5,1.61,B5

# Target: T3, rat amylin receptor (rat calcitonin …)
# Test: SPA competition with 125I-rat amylin on membranes of BHK tk'ts 13 cells with rat calcitonin receptor + rat RAMP3 (Assay VI)
row,IC50 [nM],Binder
1,2.86,B1
2,0.339,B2
3,0.288,B3
4,3.14,B4
5,0.152,B5

# Target: T2, rat calcitonin receptor
# Test: ratio of IC50 on rat calcitonin receptor to IC50 on rat amylin receptor (reference m40)
row,Ratio rCT/rAmylin binding,Binder
1,158,B1
2,113,B2
3,73,B3
4,159,B4
5,10.6,B5
